Changes are numbered by the printed parent chain.
B1: [224G11][Hz1] (antibody, V domains shown)
VH: QVQLVQSGAEVKKPGASVKVSCKASGYIFTAYTMHWVRQAPGQGLEWMGWIKPNNGLANYAQKFQGRVTMTRDTSISTAYMELSRLRSDDTAVYYCARSEITTEFDYWGQGTLVTVSS
VL: DIVLTQSPDSLAVSLGERATINCKSSESVDSYANSFMHWYQQKPGQPPKLLIYRASTRESGVPDRFSGSGSRTDFTLTISSLQAEDVAVYYCQQSKEDPLTFGGGTKVEIKR
B2: [224G11][TH7 Hz1] (antibody, V domains shown)
VH: B1 VH
VL: B1 VL
B3: [224G11][Hz2] (antibody, V domains shown)
VH: B1 VH
VL: B1 VL with L4M, R72G
B4: [224G11][TH7 Hz3] (antibody, V domains shown)
VH: B1 VH
VL: B1 VL with L4M, M37L, R72G
B5: [224G11][Hz3] (antibody, V domains shown)
VH: B1 VH
VL: B1 VL with L4M, M37L, R72G
B6: [224G11][TH7 chim] (antibody)
heavy: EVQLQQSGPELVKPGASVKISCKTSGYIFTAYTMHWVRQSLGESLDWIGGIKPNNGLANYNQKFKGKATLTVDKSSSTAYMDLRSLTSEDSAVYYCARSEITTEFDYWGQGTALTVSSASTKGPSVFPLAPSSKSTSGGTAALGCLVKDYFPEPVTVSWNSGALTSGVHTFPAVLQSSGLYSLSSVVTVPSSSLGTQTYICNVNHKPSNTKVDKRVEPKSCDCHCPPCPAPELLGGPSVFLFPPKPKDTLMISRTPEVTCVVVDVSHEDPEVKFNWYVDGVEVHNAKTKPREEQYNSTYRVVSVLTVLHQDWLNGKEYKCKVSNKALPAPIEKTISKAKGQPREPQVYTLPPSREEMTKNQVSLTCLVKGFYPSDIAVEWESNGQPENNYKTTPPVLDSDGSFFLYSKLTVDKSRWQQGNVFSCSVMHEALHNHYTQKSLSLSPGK
light: DIVLTQSPASLAVSLGQRATISCRASESVDSYANSFMHWYQQKPGQPPKLLIYRASNLESGIPARFSGSGSRTDFTLTINPVEADDVATYYCQQSKEDPLTFGSGTKLEMKRTVAAPSVFIFPPSDEQLKSGTASVVCLLNNFYPREAKVQWKVDNALQSGNSQESVTEQDSKDSTYSLSSTLTLSKADYEKHKVYACEVTHQGLSSPVTKSFNRGEC
B7: murine 224G11 Mab (antibody, mouse IgG1, V domains shown)
VH: EVQLQQSGPELVKPGASVKISCKTSGYIFTAYTMHWVRQSLGESLDWIGGIKPNNGLANYNQKFKGKATLTVDKSSSTAYMDLRSLTSEDSAVYYCARSEITTEFDYWGQGTALTVSS
VL: DIVLTQSPASLAVSLGQRATISCRASESVDSYANSFMHWYQQKPGQPPKLLIYRASNLESGIPARFSGSGSRTDFTLTINPVEADDVATYYCQQSKEDPLTFGSGTKLEMKR
B8: [224G11][MH chim] (antibody, human IgG1, V domains shown)
VH: B7 VH
VL: B7 VL
B9: [224G11]chim (antibody, human IgG1, V domains shown)
VH: B7 VH
VL: B7 VL
B10: [224G11][MUP9H chim] (antibody, human IgG1, V domains shown)
VH: B7 VH
VL: B7 VL
B11: [224G11][MMCH chim] (antibody, human IgG1, V domains shown)
VH: B7 VH
VL: B7 VL

Molecular target: human c-Met receptor on tumor cells (A549, NCI-H441, BxPC3) (human, UniProt P08581 25-1390)
Assay: cell-based or functional assay

Row | Binder | inhibition of HGF-induced proliferation of NCI-H441 cells (Figure 14A) | inhibition of HGF-induced proliferation of NCI-H441 cells (Figure 15) | inhibition of HGF-induced proliferation of NCI-H441 cells (Figure 14B)
1 | B1 | ~46% |  | 
2 | B2 |  | 67% | 
3 | B3 | ~30% |  | 
4 | B4 |  | 76% | 
5 | B5 | ~35% |  | 
6 | B6 |  | 81% | 93%
7 | B7 | 66% | 74% | 57%
8 | B8 |  |  | 79%
9 | B9 | 19% | 33% | 
10 | B10 |  |  | 78%
11 | B11 |  |  | 84%
